From the nanobody polyreactivity screen of Harvey et al. (2022)

Assay: yeast display, Sf9 membrane polyspecificity reagent, FACS + sequencing; frameworks hold sequencing errors
Outline: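 Genes from sorted yeast were amplified by colony PCR, read by MiSeq 2 × 250 sequencing and filtered on CDR length. These cells carried a synthetic nanobody library in Saccharomyces cerevisiae BJ5465 and were sorted by FACS into low and high (top ~1%) gates on anti-HA and streptavidin fluorescence. Polyreactivity is labelled according to the gate of origin.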

| Sequence | polyreactivity (PSR sort gate) |
| --- | --- |
| QVQLVESGGGLVQAGGSLRLSCAASGRIFVSNAMGWYRQAPGKERELVAGITWTSGSTYYADSVKGRFTISRDNAKNTFYLQMNSLKPEDSAVYYCAAEFWYGNALDYWGQGTQVTVSS | low polyreactivity |
| QVQLVESGGGLVQAGGSLRLSCAASGFTFQFNAMGWYRQAPGKERELVAAITWSGDSTYYADSVKGRFTISRDNAKNTVYLQMISLKPEDTAVYYCNADYGWVDTYTNYDYWGQGTQVTVSS | low polyreactivity |
| QLQLVESGGGLVQAGGSLRLSCAASGFTFDSYAMGWYRQAPGKERELVAAITWDGGSTYYADSVKGRFTISRDNAKNTVYLQMNSLKPEDTAVYYCAADFGTISIDVYSWMDYWGQGTQVTVSS | low polyreactivity |
| QVQLVESGGGLVQAGGSVRLSCAASGSICFYAMGWYRQAPGKERELVAAISWRGGSTYYADSVKGRFTISRDNAKNTVYLQMNSLKPEDTAVYYCAKATRRYDVYTYGYWGQGTQVTVSS | high polyreactivity |
| QVQLVESGGGLVQAGGSLRLSCAASGSIFDNYAMGWYRQAPGKEREFDAGISWSGGSTRYADSVKGRFTISRDNAKNTVYLQMNSLKPEDTAVYYCNTGYGLVDFLYGYYYWGQGTQVTVSS | low polyreactivity |
| QVQLVESGGGLVQAGGSLRLSCAASGSTFYRYAMGWYRQAPGKEREFVAAISTRGGSTHYADSVKGRFTISRDTAKNTVYLHMNSLKPEDTAVYYCNARGYYSVPSNTGIRYYRFDYWGQGTQVTVSS | high polyreactivity |
| QVQLVESGGGLVQAGGSLRLSCAASGFTFPGYTMGWYRQAPGKERELVAAITWSGGSTYYADSVKGRFTISRDTAKNTVYLQMNSLKPEDTAVYYCAAKYGAYYGNRDYWGQGTQVTVSS | high polyreactivity |
| QVQLVESCGGLVQAGGSLRLSCAASGRIFPYNAMGWYRQAPGKERELVAAIDWRDNTYYADSVKGRFTISRDNAKNTVYLQMNSLKPEDTAVYYCNVDYTDYFLNKYDYWGQGTQVTVSS | low polyreactivity |
| QVQLVESAGGLVQAGGRLSLSCAASGRTYKKYAMGWYRPEPGKERELVAAITGSGGSTYYADSVKGRFTISRDNAKNTVYLQMNSLKPEDTAVYYCAAYAYGVWDSQDGGNYWGLGTQVTVSS | low polyreactivity |
| QVQLVQSGGGVVQAGGSLRLSCAASGRIFNTNAMGWYRHAPGKERELVAGITDSGDSTYYADSVKGRFTISRDNAKITVYLQMYSLKPEDSAVYYCATDPASPYIYDFWGLGTQVTVSS | low polyreactivity |
| QVQLVESGGGLVQAGGSLRLSCAASGFIFPANAMGWSRQAPGKERELVAAINYSGGSTYYADSVKGRFTISRDNAKNTVYLQMNSLKPEDTAVYYCNADFYVVGVTTVDLSGYDSWGQGTQVTVSS | low polyreactivity |
| QVQLVESGGGLVQAGGSLRLSCAASGSILKNNAMGWYRQAPGKERELVAAITYSSGSTYYADSVKGRFTISRDNAKNTVYLQMNILKPEDTAVYYCATDPEGSTGGGYEYWGQGTQVTVSS | low polyreactivity |
| QVQLVESGGGLVQAGGSLRLSCAASGRIFGSYAMGWYRQAPGKERELVAAISWNGGSRYYADSVKGRFTISRDNAKNTVYLQMNSLKPEDTAVYYCAVVYRAYRSTAYLYGYWGQGTQVTVSS | high polyreactivity |
| QVQLVESGGGLVQAGGSLRLSCAASGFTFTYYDMGWYRQAPGKERELVAAISRSGGRTYYADSVKGRFTISRDNAKNTVYLQMNSLKPEDTAVYYCAARRVDTRVHVRYRYYYWGQGTQVTVSS | high polyreactivity |
| QVQLVESVGGLVQAGGSLRLSSAASGFTFTRNTMGWYRQAPGKERELVAAITRGGSTNYADSVKGRFTISLDTAKNPVYLQMHSLKPEDTAVYYCAADAPFDSPYNYWGQGTQVTVSS | low polyreactivity |
| QDQLVESGGGLVQAGGSLRLSCAASGSTLTRNAMGWYRQAPGKERELVAAITSGGRTKYADSVKGRFTISRDNAKNTVYLQMNSLKPEDTAVYYCAKGGPPGQRGYDYWGQGTQVTVSS | high polyreactivity |

| Sequence | polyreactivity (PSR sort gate) |
| --- | --- |
| QVQLVESGGGLVQAGGSLRLSCAASGSTFDSYAMGWYRQAPGKERELVAAITRSDASTYYADSVKGRFTISRDNAKNTVYLQMNSLKPEDTAVYYCDADTSLVYYGGDWEYYYWGQGTQVTVSS | low polyreactivity |
| QVQLVESGGGLVQAGGSLRLSCAASGRIFGYYTMGWYRQAPGKERELVATITGGGGSTYYADSVKGRFTISRDNAKNTVYLQMNSLKPEDTAVYYCAKRNWKYVSHRHSYYETYDYWGQGTQVTVSS | high polyreactivity |
| QVQLVESGGGLVQAGGSLRLSCAASGLTFYIYAMGWSRQAPGKERELVAGISWIGGRTYYADSVKGRFTISRDNAKNTVYLQLNSLKPEDTAVYYCIAYLSYTSRGRYYKYDYWGQGTQVTVSS | high polyreactivity |
| QVQLVESGGGLVQAGGSLRLSCAASGIIFGENAMGWYRQAPGKERELVAAITESGGSTYYADSVKGRFTISRDNAKNTVYLQMNSLKPEDTAVYYCNALPFRYGKRRGYWGQGTQVTVSS | low polyreactivity |
| QVQLVESGGGLVQAGGSLRLSCAASGFTFYTNTMGWYRQAPGKERELVAAISSGGSTYYADSVKGRFTISRDNAKNTVYLQMNRLKPEDTAVYYCNAYDYHDVADDYWGQGTQVTVSS | low polyreactivity |
| QVQLQESGGGLVQARGSLRLSCAASGTILYSLGMGWYRQAPGKRREFVASITWGTTTNYAESVKGRFTISRDNAKNTVYPQMNSLKPEDTAVYYCAAPPFGDSSYHYWRQGTQVTVSS | low polyreactivity |
| QVQLVESGGGLVQAGGSLRLSCAASGSTFQRYVIGWYRQAPGKERELVAAITRTGASTYYADSVKGRFTISRDNAKNTVYLQMNSLKPEDTAVYYCAARYRLGSYTYDYSGQGTQVTVSS | high polyreactivity |
| QVHLVESGGGLVQAGGSLRLSCAASGSTFQFNAMGWYRQAPGKERELVATISDGGSTSYADSVKGRFTISRDNAKNTVYLQMNSLKPEDTAVYFCARDRFYDFLRVDYWGQGTQVTVSS | low polyreactivity |
| QVQLVESGGGLVQAGGSLRLSCAASGSTFDQYALGRYRQAPGKERELVADITSSDGSTYYADSVKGRFTISRDIAKNTVYLQMNSLKPEDTAVYYCNADYRYIWTYWGWSIYDYWGQGTQVTVSS | high polyreactivity |
| QVQLVESGGGLVQAGGSLRLSCAASGFTLRRNAMGWYRQAPGKERELVAAISSSGSTYYADSVKGRFTISRDNAKNTVYLQMNSLKPEDTAVYYCAASATYKVRGGYWGQGTQVTVSS | high polyreactivity |
| QVQLVESGGGLVQAGGSLRLSCAASGFTFFYYAMGWYRQAPGKERELVARISSSGGRTYYADSVKGRFTISRDNAKNTVYLQMNSLKPEDTAVYYCNARYYYYYTRYDYWGQGTQVTVSS | high polyreactivity |
| QVQLVETGGCLVQAGGSLRLSCAASGFTFRGYAMGWYRQAPGKERELVAAITAGGGSTSYADSVKGRFTISRDNAKNTVYLLMNSLKPEDTAVYYCAKDRYYGYFRSRSDYWGQGTQVTVSS | high polyreactivity |
| QVQLVESGGGLVQAGGSLRLSCAASGSTSDEYAMGWYRPAPGKERELVASISSDDTSTHYADSVKGRFTISRDNAKNTVYLQMNSLKPEDTAVYYCAARNTPAYIDYNYWGQGTQVTVSS | low polyreactivity |
| QVQLVESGGGLVQAGGSLRLSCAASGRTFYDYAMGWYRQAPGKERELVASIRGSDGSTYYADSVKGRFTISRDNAKNTVYLQMNSLKPEDTEVYYCAARGFYGTNGRVYITSYYYWGQGTQVTVSS | high polyreactivity |
| QVQLVESGGGLVQAGGSLRLSCAASGSTFLYYAMGWSRQAPGKERELVAVISWSGVSTYYADSVKGRFTISRDNAKNSVYLQMNSLKPEDTAVYYCYTGYHYIRSYGYWGQGTQVTVSS | low polyreactivity |
